Tests used:
[1] = test system: complement (SC5b-9) in human serum; assay: Evaluation of complement activation (1), MicroVue SC5b-9 Plus EIA; conditions: 37° C., 1 hour, compared with BSA, FIG. 2
Procedure: Using a microspectrophotometer (NanoDrop ND-1000, Thermo Fisher Scientific Inc.), Conjugates 1 to 4 subjected to ultrafiltration treatment were each diluted with PBS so that the value at a wavelength of 280 nm was 100. On the other hand, a conjugate (PEG-BSA) prepared according to the description in the section of [Preparation of conjugate with protein] except that maleimide PEG (SUNBRIGHT ME-100MA, NOF CORPORATION) was used instead of Polymer 1, and 100 mg of BSA were each dissolved in 1 mL of PBS to prepare a control group. Each solution (40 μL) and human serum (purchased from Tennessee Blood Service) (160 μL) were mixed and incubated at 37° C. for 1 hour. […] For each mixed solution, complement activation was evaluated using an enzyme immunoassay kit (MicroVue™ SC5b-9 Plus EIA, Quidel Corporation). The complement concentration was measured according to the manufacturer's protocol, and the measurement was performed on a plate reader (SH-9000, CORONA ELECTRIC Co., Ltd.). A reaction liquid obtained by reacting PBS with human serum was used as a negative control, and a ratio of the measured value of the negative control and a measured value in each reaction liquid was calculated by the following formula.
(Ratio with negative control)=(Measured value in each sample)÷(Measured value of negative control)

[2] = test system: complement (SC5b-9) in human serum; assay: Evaluation of complement activation (2), MicroVue SC5b-9 Plus EIA; conditions: 37° C., 1 hour, compared with the oligonucleic acid, FIG. 5
Description: Using a microspectrophotometer (NanoDrop ND-1000, Thermo Fisher Scientific Inc.), Conjugates 5 and 6 thus obtained were each diluted with PBS so that the value at a wavelength of 260 nm was 100. On the other hand, a conjugate (PEG-nucleic acid) prepared according to the description in the section of [Preparation of conjugate of polymer and oligonucleic acid] except that maleimide PEG (SUNBRIGHT ME-100MA, NOF CORPORATION) was used instead of Polymer 3, and the oligonucleic acid (base sequence (5′-d (TAGCACCATGGTTT)-3′)) described in Example 2 were each dissolved in 20 μL of PBS so that the value at a wavelength of 260 nm was 100 by the method described above to prepare a control group. Each solution (4 μL) and human serum (purchased from Tennessee Blood Service) (16 μL) were mixed and incubated at 37° C. for 1 hour. […] For each mixed solution, complement activation was evaluated using an enzyme immunoassay kit (MicroVue™ SC5b-9 Plus EIA, Quidel Corporation). The complement concentration was measured according to the manufacturer's protocol, and the measurement was performed on a plate reader (SH-9000, CORONA ELECTRIC Co., Ltd.). A reaction liquid obtained by reacting PBS with human serum was used as a negative control, and a ratio of the measured value of the negative control and a measured value in each reaction liquid was calculated by the following formula.

Exonuclease I [3] = biological target: T1, Exonuclease I (Escherichia coli, UniProt P04995); conditions: room temperature (about 25° C.), 0, 10 and 20 minutes, FIG. 4
T1 sequence (P04995 whole entry, looked up): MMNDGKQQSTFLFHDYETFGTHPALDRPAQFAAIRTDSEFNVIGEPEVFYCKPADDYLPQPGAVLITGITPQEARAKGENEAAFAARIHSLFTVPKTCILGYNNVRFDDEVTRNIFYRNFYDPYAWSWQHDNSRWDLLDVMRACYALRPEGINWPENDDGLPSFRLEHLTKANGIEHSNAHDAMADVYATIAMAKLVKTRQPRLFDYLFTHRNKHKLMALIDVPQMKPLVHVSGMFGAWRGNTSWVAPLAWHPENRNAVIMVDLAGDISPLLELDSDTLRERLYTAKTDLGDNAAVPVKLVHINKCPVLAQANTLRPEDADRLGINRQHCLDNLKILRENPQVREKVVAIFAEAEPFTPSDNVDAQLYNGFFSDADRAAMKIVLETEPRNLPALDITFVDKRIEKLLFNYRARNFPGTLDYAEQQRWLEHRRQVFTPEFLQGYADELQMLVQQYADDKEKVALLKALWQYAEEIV
Procedure: (§1) Quantitative analysis of PGLMA-Mal-nucleic acid and an unmodified nucleic acid in a nucleic acid degradation test described below was performed by ion exchange chromatography. At this time, the analysis conditions were as follows. […]
(§2) To a test tube, 42.5 μL (1.00 nmol) of the PGLMA-Mal-nucleic acid solution obtained in the section of [Preparation of conjugate of Polymer 1 and oligonucleic acid], 5 μL of 10× buffer solution (670 mM Glycine-KOH (pH 9.5), 10 mM DTT, 67 mM MgCl2), 2.5 μL of ultrapure water, and 0.5 μL of Exonuclease I (Takara Bio Inc.) (0.05 Unit/L as the final concentration of Exonuclease I in the mixed solution) were added and mixed, and the mixture was allowed to stand still at room temperature (about 25° C.). […] After 0, 10, and 20 minutes from the start of the reaction, the reaction liquid was collected and analyzed under the analysis conditions in the section of [Analysis conditions of conjugate of Polymer 1 and oligonucleic acid] or the section of [Analysis conditions of unmodified oligonucleic acid], and a residual rate of the nucleic acid was calculated from the following formula.

Exonuclease I [4] = biological target: Exonuclease I (Escherichia coli, UniProt P04995); conditions: room temperature (about 25° C.), 0, 10 and 20 minutes, FIG. 4; remark: listed apart in the source
Procedure: as §1, §2

PEG-BSA: conjugate with BSA prepared using maleimide PEG (SUNBRIGHT ME-100MA) instead of Polymer 1
complement activation (ratio with negative control) [1]: strong complement activation occurred

Conjugate 5: maleimide group of Polymer 1 bonded to the thiol group of the oligonucleic acid 5′-d (TAGCACCATGGTTT)-3′ (DNA, backbone not given here; conjugated to polymer via maleimide-thiol, further chemistry not fully specified)
complement activation (ratio with negative control) [2]: no large difference from the measured value of the oligonucleic acid
degradation of the nucleic acid (residual rate of the nucleic acid) (Exonuclease I [3]): remarkable degradation of the nucleic acid was not observed

5′-d (TAGCACCATGGTTT)-3′ [unmodified nucleic acid]
degradation of the nucleic acid (residual rate of the nucleic acid) (Exonuclease I [4]): degradation of the nucleic acid was observed over time

Source: patent US20250041430A1, “CONJUGATE COMPOUND AND METHOD FOR PRODUCING CONJUGATE COMPOUND” (NIPPON SHOKUBAI CO., LTD., priority 2021, published 2025)
